Measurements as given in the domain aggregation screens of Martell et al. (2025).

Assay: soluble fraction after stress (log2 fold change); higher = more stays soluble; pooled small domains, quantitative proteomics
Conditions: stress: pH 4
How it was run: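 High-throughput quantitative proteomics was run on pooled custom libraries of small protein domains following pH 4 stress. Fold changes are on a log2 scale; higher values mean more of a domain remained soluble. The fold change in soluble amount is taken as a measure of aggregation propensity.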

Row | Sequence | soluble fraction (log2)
1 | HMVIVGGDVIVHYVDTEGKKISDDVVKSGNVGEDYSTDQKTILGYRFKEVQGNTSGKFTDKTQVVTYIYT | 0.179
2 | HMVKEVKVPDVEGLTTEEAIKELKKYGLAYTTKSEENTDIEEGKVIRTEPKKGSTKVKGSTVTIIESSG | 0.253
3 | HMVKFGERVKQLRLSAGMTQEQLAERIWVTKAAISNYELSERNPSPETIIKIAGVFGVTTDYLLGLED | -0.434
4 | HMVKIVWSKEGPYVGTRVRRYFSQGPVDGTVVMYAKPQKGDDVALWRISHDDGDEEDLEEQELRLAID | -1.69
5 | HMVKLQATPSQRKTLDELYVQLKKLEPTAKEDLSLLRRLENSHLVSKQEAQGLISKAIGRVGALAVEQQP | 0.0541
6 | HMVKNTIHVDLKGEVNKPGVYEVEEGTIVNDLITLANGFTKNAYQDNINLSKKLTDEMVIVVSKKGS | -0.461
7 | HMVKNVVIPDVSNKAPVDASNQLTDLGFEVVTEYKYIASDTIEEGKVVKTSPEIGSKRKYGQKITLYISSG | 0.205
8 | HMVKRAYGEYVNVKLTDADLSKLKADFPADWQERIERLSTYMASTGKTYKNHLATIRNWARRDAERVSA | -0.292
9 | HMVKVSVYPNPAVDRITISGEVKAYAVYDATGKVVMKDTDYRGGAIGVSHLPAGIYIVRTDAGAVTVNK | -0.246
10 | HMVLSVRDRMVQILDQVKTGEYKRIEDFFSADEGRTGFVVSFVAILELVKGGLLTITQSKNLAPIYVRLPN | -0.108
11 | HMVLVEEYDTKDSASTFKIGYYARYNTKYGTPSKVGSYADNQRSGIWTFYTDSLKTYFKYNYSTGLIL | -0.572
12 | HMVLVGERRQKILEVVSSGKAVTVEELSRILHVSPSTVRRDLRFLESRGLLYRTHGGAMPPV | -0.0726
13 | HMVLVKFEWTPPDARILVDDHPVEARDKEMELPEGTHHVQALAPRGSGYESTVTDIEVRQGMDPVRIAL | 0.115
14 | HMVMRHTVEHDAELLAVLRLMYPASSSTKLRKMLTQGRVLVNDDVVHRAKHGVASGDTVDVIVRQRAE | 0.0827
15 | HMVNFKLIGNKIAEARKKVNISQAQLAQRLFISSQAVGKWERGESMPDIITFNRLAEILGVDLNYFSE | 0.266
16 | HMVNPDAPAPLYIVNGKETDKNIALAIKPEDVQDVRIIKNTVALQVYGEKGKNGVVIINTKPGV | 0.0604
17 | HMVNSADLAAKPFIDLLVSTRQQLREAKQYDLADTIRDELTNHGITIEDKPQGSEWQYEFNPNS | -0.499
18 | HMVNTYILNNKEYPIEIIRKNNKNTYLRVKEGKIIVTTNYLTSSFTINKLIKDNTSFINKALLKEN | -0.0629
19 | HMVNYKEILRLAHEGYSQRQIATNIGNSRNTVSEVLDAAKAANIAWPPEETVTNEQLGAILFPNRH | ≥ 0.43
20 | HMVNYKEILRLSAEGNSQRQIAAGSGNSRNTVIEVLEAARARGITWPLDEPVTNEQLEAILFPNRY | ≥ 0.43
21 | HMVPEETKQFINQLNHGSLSIRMNAANNLEKLGLLAIPEIEAALPKAHGEAAFRLPRLLHALVLRETEYF | 0.0598
22 | HMVPEMIRDVISKSIRDMGVLPDHMQINERIALIQSLKKQQILGIKGAVAETARQLGISVPTVYRYMKKG | -0.125
23 | HMVPFISVTPTSLSFAKGGESKTVDIEASGAFSVGKVPTGFNLEVVNGRITITADANTGAARNGSVEFILA | 0.00872
24 | HMVPHTTSMVAEVQERLFNLNYDPGPINGRMDQATITAITRFQRNFSLPQTGQIDEGFLNTLRDARL | 0.063
25 | HMVPLGDLSKNERRAMELAATNGNVTTRALADDAQVTKRTASTTLRRLAKRGLLEWIGKGPSDPGQFYRIP | -0.119

Row | Sequence | soluble fraction (log2)
26 | HMVPLTPGELVGTEVRVLWWKEGRGEVIASSRGHQLTLEAHSEDPLRAGSTAVVLEAADDVLVVTS | -1.18
27 | HMVPPELEFLQSLMKIEDISELTAAIENNRDAVTDDFKEMLETVIENISGAPDTDPKLLERLKTIRTVLA | -0.631
28 | HMVPPVVRTIYGAGGKMTATFLFPGGYEVDAASGAELPGKYRVESISLDQVVLTDKDGNRVPVGFSSVAPT | -0.161
29 | HMVPQEVLPITLIIDGKLIEENLLYAKMTEQVLIQQLDINNIKSIKQILFAGLDSFGNFFYQEKQN | -1.91
30 | HMVPTATVGENTSTLPVRQLPGGPVLVVLVRGDIVLPLPGHAFQNGDVWREISTVNGVIGWVPDEFLDY | -1.3
31 | HMVPTVSVDRDDTLRFEGRPVDWDVLKRELGAVAGIDELKIYADAKVSALTVSKIMKSASEAGVLQFILVT | -0.334
32 | HMVQARDQNIEEGRQLVLRELDRLDLVNESLTDVAADMNMKSVEDMYAAIGAGDLRVGQVVHAVLKRAD | -0.218
33 | HMVQDSEWWRNYQSAHDYFIQNGHLNVLRSDKKNTKLYNWIVGQRSSRWNSQGRINLLNSIGFIWDT | -1.65
34 | HMVQISNTDDLYPIVQRIVDANPQSVEDYKNGKAKALGFLVGQMMKETKGKANPSMVNDLIIKAIEE | 0.0143
35 | HMVQIVINKEVQTTSQTILRENAGTSSRNIGYVDPNVKLRATLDRNSFYFIPEKKGWIMKSRVKLIEDLS | 0.0552
36 | HMVQMNMLELQEEMQRDRSWIIKHLFQDEYFRRKIAKFSQFPINDSGKYLFHRKSMLKFLNDYAEEIVER | -1.46
37 | HMVQPSAAVRAHPVGAFVEQRQGLSDDQILALQKKWNEGIYARIQGTRWFLFSKDTPAVTSLLLVPDLP | -0.0222
38 | HMVQVHEWTNKAGRTIKAKFVRGDAQSVTIFLGGRNFVLKIADLSEESQALARKLSAPPPPP | 0.0306
39 | HMVQVPSLVGISEIEAKTLLTQAGFFVKIVEVFDANQPVGIVLAQAPSAGESRIIGSPVTITVNKAQ | -0.6
40 | HMVQVRQPAGAGDLFAKGRLHLSTGTIHTVKPLEVDLPKGRLTVVTGVSGSGKTTLILESLLPALAAAAA | 0.307
41 | HMVRSLESESVYDRQRAYEIAYQLRTEERPYSFIATQLNKAGLRPQKAARYEWYSVQELLRSA | ≥ 0.43
42 | HMVSDISTQYQKIINEALDKQPEVKLADIVTMIKEQTSNKVQNGIVENVAKQMNGIEIIKIGQAKGVRRTT | 0.152
43 | HMVSDTGAIEAIVAQVLADNPKLVEGYLATPEDKRGKAIGPFIGLTRKAAAGVNPQVVMDVLKKKLSEL | -0.733
44 | HMVSEASELTDTINKIGSLAQALVGANKLSKTDLVGIIKKYHTSANYNSITDIGVAKNILAELEAKN | -0.264
45 | HMVSFSIDEALVSAVKGPRSANVMSIQRQFLVRLSVERDGRVTITGANSKSVQQAREAVEAAVEEAKLHP | 0.238
46 | HMVSGVMAQQAIAVLVQQEDKHAPLSDQALAERLQVQGIDISRRTVAKYRQLLQIPSAATRR | -0.0405
47 | HMVSIGSQVAKRRRELRLTQQNLAEKMGVSFQAISSWEREEFLPDINKLQKLAAILNTKISYLLEE | -0.538
48 | HMVSINETAFIQIKNSSATEIKEKITALKLDELKNVTITADIRTNKLIVVGPKATINKIQELVIELDTES | -0.49
49 | HMVSKTEAMAVFIADKLQEGMVPANEILELYKGMQLSDRTIRNAKKQLGIVSIRKDGQWYWSL | -0.997
50 | HMVSLPSPLAGKVVSLTVQAGQEVKEGDEIMVLEAMKMNTQVHAPSSGRILALRVQPGDQVEEGQTLVTMG | 0.0584

Row | Sequence | soluble fraction (log2)
51 | HMVSLSNQVFEKIEYDILSGKYKIGEIISEKRLSSELGVSRTPIREALGRLSEEGLVGDSPSGTVVLGI | -0.287
52 | HMVSRVTTPGVVGKTWQETKQILKQADLTVGSLTRDGKDVTPADGDLVTAQNPSAGQAIVRGSSVDLTFDK | 0.0198
53 | HMVSSYTMAIQINGKLRATHDFSVDTSQEDIKKIIINLPAIQKYINGVEIKKFIIVPQKIVNIV | -0.0406
54 | HMVSTEDEISDKLLLDFALEKLSENEKQIVKLRYYNSLTQSKTAEILNMTQVQVSRSEKKILAKLRGII | 0.0807
55 | HMVSTGIMVVDGRGSVLQHNEAALRQLGVEVLTFESQVKEKLASEDFSVRETTAMLNGKKVRIIAFSDIR | -1.66
56 | HMVSVEELLSSLDPNEATVLKLLAERSSGVDELMERSGLDFSALSEAITNLELFGYIAREMDGVYSFS | -1.78
57 | HMVSVPDIGEKLPDFTGTPKRLLTPLLNKNDVNIIIKGDGWVVSQKPPAGTPVTKGMTIEFTL | -0.0317
58 | HMVTDSGEIEKLVDEVIDNNPDQVQQFREGKQQVLSYLVGQAMKLSRGKANPNQVNQFLRDKL | 0.152
59 | HMVTDTGEIEAIIDRVISENPDSVSDFKNGKERALKFLMGQAMKESKGKANPQIVNELLLKKL | 0.0343
60 | HMVTDVDELEKLIQKVLDSNSSQVDEYRQGKEKVFGFFVGAVMKLTKGQADPDVVNQLLKEKLSGRK | -0.0516
61 | HMVTDVDYSTFLSQVEEGKVESVTIEDGEILFKGKDENGEARWYITGEMNDPNLVERLKDKVPSFNAPA | -0.128
62 | HMVTIYQRIMLVLEDKQVSVNALSKLVDMSQTTLNTQLKGERTLSANVVAKVLVAYPDVSAEWLMRGVGTM | -0.426
63 | HMVTLYDGFLSELRKRIPRGAELTNTLVDMLYIEREAVYRRLRGEVPFTFIEVMTVSKELGISLDNLAQA | -0.802
64 | HMVTTADIILEFYSRNPNATLTQAAQHVARATGTTYSRQAISAQLKRLEVAGLVERNGHVTV | -0.47
65 | HMVTTLLIINVAGKVKNPGVYQLPPGSRVVDALEAAGQQLKGVDISDINLARVLVDGEQILIGSN | -1.35
66 | HMVTVQEGETLSAIAARSGVSVKDLVRANEIRNPDSIQEGQVLFVP | 0.165
67 | HMVVADFQNYTVKPKENLYSLTKTSGLSQEELVALNPELKNGVQEGMVIKLPAAVKLMAQPE | 0.22
68 | HMVVLPGEVLRINVIQEGKEHGQGVGYMDDGTMVVIENGREFIGEYMEVNVTKVLQTAAGRMIFGRVD | -0.917
69 | HMVVLPPTEDAPEWAQVFDRLGRPESADGYKLPVPEGADPAFAKLASAKMHELGLSAKQGAALAAWWNEQA | -0.332
70 | HMVVMEIGANGSEVVKLQKRLNQLGYYTEHASGVYDVKTASAVNEFQRQNELNATGKADYTTLDMIYNQ | -0.204
71 | HMVVRRLPFGFSKRFGVLVVPGTSNPVELLYREDASMQSLLEARRVVAQPVAFKKTDVESFNAQLARAHEN | -0.122
72 | HMVVSDSAEIDKIVQDVIAANPKAIEDFKSGKTNVTGWLMGQVMKLSHGKANPKQATEILNKYLSK | 0.18
73 | HMVVTRVKAIDVVNIRKSDSETADKLGKAAVGDEFDLLEKKGNGWSKISYEGGEAYIKSEFLEPSE | 0.034
74 | HMVVVMEKNASSAEIEQVQERLRQAGFKIHLSQGVERTIIGAIGDRSQVDLGFLEALPGVEKVVPIMK | 0.248
75 | HMVVYFGGPVMLERGIVLHTPDISTKGTINVSDDFALTAHKEILDNINKDTSSLQFKLAIGH | -0.337
